Reference: publication PMC11887224

Target: Trop-2 (recombinant, His-tagged) (UniProt P09758 27-274)
Assay: SPR

Sequence of Trop-2 (recombinant, His-tagged) (P09758 27-274): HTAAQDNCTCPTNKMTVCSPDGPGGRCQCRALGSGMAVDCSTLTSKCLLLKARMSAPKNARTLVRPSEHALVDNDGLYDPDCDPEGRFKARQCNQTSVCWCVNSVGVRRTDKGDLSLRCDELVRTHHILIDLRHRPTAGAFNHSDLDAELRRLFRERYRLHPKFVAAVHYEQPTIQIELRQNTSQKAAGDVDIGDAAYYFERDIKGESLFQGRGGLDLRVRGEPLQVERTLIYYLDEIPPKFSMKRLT

B1: TRPFL (structured_DNA)
DNA: CTACGGTGCCTTGAAGTGACTCGTTCCGTCCCTGGCCGCTCCTACTATCGATGTGTCATAGCAGGTCACTTCCAGG
  Kd: 110 nM
